The target of this experiment is T1, HLA-A*02:01 (human).
T1 construct: monomers captured on streptavidin plates; also called MHC class I
Briefly: UV peptide exchange ELISA. The text has this: Candidate peptides for T cell based therapies according to the present invention were further tested for their MHC binding capacity (affinity). The individual peptide-MHC complexes were produced by UV-ligand exchange, where a UV-sensitive peptide is cleaved upon UV-irradiation, and exchanged with the peptide of interest as analyzed. Only peptide candidates that can effectively bind and stabilize the peptide-receptive MHC molecules prevent dissociation of the MHC complexes. To determine the yield of the exchange reaction, an ELISA was performed based on the detection of the light chain (p2m) of stabilized MHC complexes.
96 well MAXISorp plates (NUNC) were coated over night with 2 μg/ml streptavidin in PBS at room temperature, washed 4× and blocked for 1 h at 37° C. in 2% BSA containing blocking buffer. […] Peptide-MHC monomers of the UV-exchange reaction were diluted 100 fold in blocking buffer. Samples were incubated for 1h at 37° C., washed four times, incubated with 2 μg/ml HRP conjugated anti-p2m for 1h at 37° C., washed again and detected with TMB solution that is stopped with […]. Absorption was measured at 450 nm.
On to YHIDEEVGF, for which the peptide exchange yield lay in the range of 10 to 20%.
For the molecule TLAEEVVAL, the peptide exchange yield was 50 to 75%.
In the case of ILVGGGALATV, the peptide exchange yield lay in the range of 50 to 75%.
As for VLVSDGVHSV, the peptide exchange yield was in the range of 50 to 75%.
FVPPVTVFPSL gave a peptide exchange yield of 20 to 50%.
Molecule YLQELIFSV had a peptide exchange yield of 50 to 75%.
On to YLLSTNAQL, for which the peptide exchange yield is no less than 75%.
For the molecule NLLELFVQL, the peptide exchange yield was 50 to 75%.
VLAYFLPEA displayed a peptide exchange yield of no less than 75%.
VQIHQVAQV showed a peptide exchange yield of 50 to 75%.
On to FLLAEDDIYL, for which the peptide exchange yield lay in the range of 50 to 75%.
In the case of YIMEPSIFNTL it was 50 to 75%; in that of SLATAGDGLIEL, 20 to 50%.
In turn, LLQAIKLYL displayed a peptide exchange yield of 20 to 50%.
Then KLIDNNINV, with 50 to 75%; and ALVSKGLATV, with 20 to 50%.
As to IILSILEQA, the peptide exchange yield was no less than 75%.
In turn, LLVEQPPLAGV showed a peptide exchange yield of 50 to 75%.
On to FLATSGTLAGI, for which the peptide exchange yield lay within 20 to 50%.
Then YLDFSNNRL, with 20 to 50%; and YQYPRAILSV, with 50 to 75%.
Regarding SLLEAVSFL, the peptide exchange yield is 50 to 75%.
KVLSNIHTV had a peptide exchange yield of 20 to 50%.
In the case of GVVDPRAISVL, the peptide exchange yield lay within 20 to 50%.
KIGDEPPKV showed a peptide exchange yield of 20 to 50%.
Molecule SLVGEPILQNV returned a peptide exchange yield of 20 to 50%.
Molecule ALNPEIVSV showed a peptide exchange yield of 20 to 50%.
Consider YLFDDPLSAV, for which the peptide exchange yield lay within 20 to 50%.
FLWNGEDSALL displayed a peptide exchange yield of 50 to 75%.
SVIPQIQKV registered a peptide exchange yield of 50 to 75%.
YLADPSNLFVV displayed a peptide exchange yield of 50 to 75%.
In turn, LLLDITPEI came in with a peptide exchange yield of no less than 75%.
Then LLYDAVHIVSV, with 50 to 75%; and ALSEVDFQL, with 50 to 75%.
Consider SLASKLTTL, for which the peptide exchange yield is no less than 75%.
Molecule SVMEVNSGIYRV showed a peptide exchange yield of 50 to 75%.
Molecule RLWEEGEELEL showed a peptide exchange yield of 50 to 75%.
For the molecule STMEQNFLL, the peptide exchange yield was no less than 75%.
With SLINGSFLV, the peptide exchange yield is 50 to 75%.
ALFPGVALLLA: the peptide exchange yield was no less than 75%.
The molecule GLLDGGVDILL showed a peptide exchange yield of 50 to 75%.
In turn, SLLEADPFL showed a peptide exchange yield of 50 to 75%.
For the molecule LIIDQADIYL, the peptide exchange yield lay within 50 to 75%.
Then YLFESEGLVL, with 50 to 75%; and AIAGAGILYGV, with 20 to 50%.
Consider KILQQLVTL, for which the peptide exchange yield fell in the range of 50 to 75%.
Molecule GIMEHITKI gave a peptide exchange yield of no less than 75%.
In turn, HLTEVYPEL returned a peptide exchange yield of 50 to 75%.
On to YLIDIKTIAI, for which the peptide exchange yield is 20 to 50%.
Then TLVLTLPTV, with no less than 75%.
ALLGIPLTLV yielded a peptide exchange yield of 50 to 75%.
On to YIFTDNPAAV, for which the peptide exchange yield is 50 to 75%.
In the case of YMDAPKAAL it was 20 to 50%.
For NLWDLTDASVV, the peptide exchange yield is 50 to 75%.
Turning to SLMEPPAVLLL, the peptide exchange yield lay within 50 to 75%.
Then ALYETELADA, with 20 to 50%.
YVWGFYPAEV: the peptide exchange yield fell in the range of 50 to 75%.
In the case of ILPDGEDFLAV it was 50 to 75%; in that of FLSQVDFEL, 50 to 75%.
The molecule GLLPTPLFGV displayed a peptide exchange yield of 50 to 75%.
In the case of FLYIGDIVSL it was no less than 75%; in that of FLQPVDDTQHL, 50 to 75%.
Take FLFATPVFI: the peptide exchange yield is 50 to 75%.
